Laboratory results published in patent US20230340132A1, “ANTI-ADENOSINE RECEPTOR (A2aR) ANTIBODIES” (NA Biotech Corp, priority 2020, published 2023).
Each block holds one molecule with its values, some of them ahead of it.

Columns and labels:
tumor = details: mice treated with A2aR antagonist; background statement; cited from earlier work
[1] = target: T1, human adenosine receptor A3 (human, UniProt P0DMS8 1-318); experiment: flow cytometry on HEK293T-A3 cells; anti-FLAG 2 ug/mL, positive control; duplicate 2
T1 construct: whole, on cells; the tag is not described; also called A3R; human A3R
T1 sequence (looked up): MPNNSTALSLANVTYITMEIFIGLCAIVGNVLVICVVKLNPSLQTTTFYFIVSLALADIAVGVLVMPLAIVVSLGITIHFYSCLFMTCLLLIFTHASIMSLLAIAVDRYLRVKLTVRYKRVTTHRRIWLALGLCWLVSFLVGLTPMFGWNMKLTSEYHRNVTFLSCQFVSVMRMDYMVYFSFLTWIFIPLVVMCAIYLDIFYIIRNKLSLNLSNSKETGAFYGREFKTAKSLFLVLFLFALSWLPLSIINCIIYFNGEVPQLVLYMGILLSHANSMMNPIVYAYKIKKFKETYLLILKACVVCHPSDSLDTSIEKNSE

[2] = target: T2, mouse adenosine receptor A2A (mouse, UniProt Q60613 1-410); experiment: flow cytometry on HEK293T-mA2A cells; anti-FLAG 2 ug/mL, positive control; duplicate 1
T2 construct: whole, on cells; the tag is not described; also called mouse A2aR; mouse A2R

[3] = target: T3, human adenosine A2A receptor (A2aR) (human, UniProt P29274 1-412); experiment: flow cytometry on HEK293T-A2A cells; anti-FLAG 2 ug/mL, positive control; duplicate 1
[4] = target: human adenosine receptor A1 (human) (UniProt P30542); experiment: flow cytometry on HEK293T-A1 cells; anti-FLAG 2 ug/mL, positive control; duplicate 1
[5] = target: T1, human adenosine receptor A3; experiment: flow cytometry on HEK293T-A3 cells; anti-FLAG 2 ug/mL, positive control; duplicate 1
[6] = target: T4, human adenosine receptor A2B (human, UniProt P29275 1-332); experiment: flow cytometry on HEK293T-A2B cells; anti-FLAG 2 ug/mL, positive control; duplicate 2
T4 construct: whole, on cells; the tag is not described; also called A2bR; human A2bR
T4 sequence (looked up): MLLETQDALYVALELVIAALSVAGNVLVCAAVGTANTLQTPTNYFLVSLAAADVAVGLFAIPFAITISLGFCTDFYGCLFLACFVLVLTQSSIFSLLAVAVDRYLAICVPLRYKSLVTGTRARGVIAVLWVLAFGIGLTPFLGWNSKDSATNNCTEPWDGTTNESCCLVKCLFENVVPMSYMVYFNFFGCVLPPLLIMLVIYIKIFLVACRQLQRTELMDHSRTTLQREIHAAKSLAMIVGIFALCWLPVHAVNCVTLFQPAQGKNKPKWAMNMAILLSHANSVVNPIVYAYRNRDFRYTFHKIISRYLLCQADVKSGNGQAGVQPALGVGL

[7] = target: T2, mouse adenosine receptor A2A; experiment: flow cytometry on HEK293T-mA2A cells; anti-FLAG 2 ug/mL, positive control; duplicate 2
[8] = target: T3, human adenosine A2A receptor (A2aR); experiment: flow cytometry on HEK293T-A2A cells; anti-FLAG 2 ug/mL, positive control; duplicate 2
[9] = target: human adenosine receptor A1 (human) (UniProt P30542); experiment: flow cytometry on HEK293T-A1 cells; anti-FLAG 2 ug/mL, positive control; duplicate 2
[10] = target: T4, human adenosine receptor A2B; experiment: flow cytometry on HEK293T-A2B cells; anti-FLAG 2 ug/mL, positive control; duplicate 1
[11] = target: T4, human adenosine receptor A2B; experiment: flow cytometry on HEK293T-A2B cells; isotype control 10 nM; duplicate 1
[12] = target: T1, human adenosine receptor A3; experiment: flow cytometry on HEK293T-A3 cells; isotype control 50 nM; duplicate 1
[13] = target: T1, human adenosine receptor A3; experiment: flow cytometry on HEK293T-A3 cells; isotype control 50 nM; duplicate 2
[14] = target: human adenosine receptor A1 (human) (UniProt P30542); experiment: flow cytometry on HEK293T-A1 cells; isotype control 10 nM; duplicate 1
[15] = target: human adenosine receptor A1 (human) (UniProt P30542); experiment: flow cytometry on HEK293T-A1 cells; isotype control 50 nM; duplicate 2
[16] = target: T1, human adenosine receptor A3; experiment: flow cytometry on HEK293T-A3 cells; isotype control 10 nM; duplicate 2
[17] = target: T4, human adenosine receptor A2B; experiment: flow cytometry on HEK293T-A2B cells; isotype control 50 nM; duplicate 2
[18] = target: T2, mouse adenosine receptor A2A; experiment: flow cytometry on HEK293T-mA2A cells; isotype control 50 nM; duplicate 2
[19] = target: T2, mouse adenosine receptor A2A; experiment: flow cytometry on HEK293T-mA2A cells; isotype control 10 nM; duplicate 2
[20] = target: T1, human adenosine receptor A3; experiment: flow cytometry on HEK293T-A3 cells; isotype control 10 nM; duplicate 1
[21] = target: T4, human adenosine receptor A2B; experiment: flow cytometry on HEK293T-A2B cells; isotype control 50 nM; duplicate 1
[22] = target: T3, human adenosine A2A receptor (A2aR); experiment: flow cytometry on HEK293T-A2A cells; isotype control 10 nM; duplicate 1
[23] = target: T3, human adenosine A2A receptor (A2aR); experiment: flow cytometry on HEK293T-A2A cells; isotype control 50 nM; duplicate 2
[24] = target: T3, human adenosine A2A receptor (A2aR); experiment: flow cytometry on HEK293T-A2A cells; isotype control 50 nM; duplicate 1
[25] = target: T2, mouse adenosine receptor A2A; experiment: flow cytometry on HEK293T-mA2A cells; isotype control 50 nM; duplicate 1
[26] = target: human adenosine receptor A1 (human) (UniProt P30542); experiment: flow cytometry on HEK293T-A1 cells; isotype control 10 nM; duplicate 2
[27] = target: T3, human adenosine A2A receptor (A2aR); experiment: flow cytometry on HEK293T-A2A cells; isotype control 10 nM; duplicate 2
[28] = target: human adenosine receptor A1 (human) (UniProt P30542); experiment: flow cytometry on HEK293T-A1 cells; isotype control 50 nM; duplicate 1
[29] = target: T4, human adenosine receptor A2B; experiment: flow cytometry on HEK293T-A2B cells; isotype control 10 nM; duplicate 2
[30] = target: T2, mouse adenosine receptor A2A; experiment: flow cytometry on HEK293T-mA2A cells; isotype control 10 nM; duplicate 1
[31] = target: T1, human adenosine receptor A3; experiment: flow cytometry on HEK293T cells stably expressing human A3R
[32] = target: T2, mouse adenosine receptor A2A; experiment: flow cytometry on HEK293T cells stably expressing mouse A2aR
[33] = target: T3, human adenosine A2A receptor (A2aR); experiment: cell-based or functional assay
[34] = target: T4, human adenosine receptor A2B; experiment: flow cytometry on HEK293T cells stably expressing human A2bR
parental Expi293 cells = experiment: FACS screening of hybridoma clones on parental Expi293 cells; assay type: binding; details: antibodies from hybridoma clones
Protocol: (§1) Serum titration was performed using Fluorescence-Activated Cell Sorting (FACS) pursuant to standard procedures. Human A2aR-expressing Expi293 cells were first added to 96-well plate (1×10^5 cells per well), 50 μl of serial diluted serum (1:50, 1;150, 1:450, 1:[…], 1:12150) from each individual mouse was incubated with cells for 30 min. on ice. After washing with FACS buffer (2% Fetal bovine serum, 2 mM EDTA in PBS), Alex Fluor 647-conjugated anti mouse IgG was added and incubated for 20 min on ice. Cells were resuspending with 100 μl FACS buffer after two times wash and ready for FACS analysis (BD LSR II Flow Cytometer, HTS). […] (MFI: mean fluorescence intensity).
(§2) Primary screening of the hybridoma supernatants in the 96-well plates was performed using the same FACS procedure as described for serum titration except following changes: 1) Human A2aR-expressing Expi293 cells (expressing GFP) were mixed at 1:1 ratio with parental Expi293 (no A2aR expression) and added to 96-well plates (2×10^5 cells per well), 2) 50 μl hybridoma supernatant transferred from each well of 96-well plates was incubated with cells for 30 min. on ice.
(§3) Sub-cloning was performed by limiting dilution method. In short, the positive wells identified by FACS were seeded into 96-well plate at an average density of 1 cell/well. The […] was placed in incubator for 7-10 days to allow the growth of the cells. The growth of cells was monitored periodically. At about day 4, the wells on the plate were observed under phase contrast microscopy and the wells which appeared to have single colony growing (i.e., only one clumping of hybridomas) were recorded. The cells from the single colony wells were screed by FACS using the same procedure as described for primary screening of hybridoma when the confluence of the cell reached about 50%.

human A2aR = target: T5, human A2aR (Homo sapiens, UniProt P29274); experiment: FACS screening of hybridoma clones on human A2aR-expressing Expi293 cells; assay type: binding; details: antibodies from hybridoma clones
T5 construct: expressed in transfected cells; host or cells: Expi293
Protocol: as §1, §2, §3

T3 sequence (P29274 whole entry): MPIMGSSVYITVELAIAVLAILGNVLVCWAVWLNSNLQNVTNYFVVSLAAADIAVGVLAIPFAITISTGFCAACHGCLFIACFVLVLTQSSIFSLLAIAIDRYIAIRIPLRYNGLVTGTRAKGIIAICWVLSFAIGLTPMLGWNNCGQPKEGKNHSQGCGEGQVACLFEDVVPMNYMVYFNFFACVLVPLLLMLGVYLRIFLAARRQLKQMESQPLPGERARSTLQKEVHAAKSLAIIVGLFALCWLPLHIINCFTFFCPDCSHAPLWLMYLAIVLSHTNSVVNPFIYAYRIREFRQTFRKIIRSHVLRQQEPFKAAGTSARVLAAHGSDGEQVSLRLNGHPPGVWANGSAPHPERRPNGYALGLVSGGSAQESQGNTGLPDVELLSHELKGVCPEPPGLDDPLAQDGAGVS
T2 sequence (Q60613 whole entry): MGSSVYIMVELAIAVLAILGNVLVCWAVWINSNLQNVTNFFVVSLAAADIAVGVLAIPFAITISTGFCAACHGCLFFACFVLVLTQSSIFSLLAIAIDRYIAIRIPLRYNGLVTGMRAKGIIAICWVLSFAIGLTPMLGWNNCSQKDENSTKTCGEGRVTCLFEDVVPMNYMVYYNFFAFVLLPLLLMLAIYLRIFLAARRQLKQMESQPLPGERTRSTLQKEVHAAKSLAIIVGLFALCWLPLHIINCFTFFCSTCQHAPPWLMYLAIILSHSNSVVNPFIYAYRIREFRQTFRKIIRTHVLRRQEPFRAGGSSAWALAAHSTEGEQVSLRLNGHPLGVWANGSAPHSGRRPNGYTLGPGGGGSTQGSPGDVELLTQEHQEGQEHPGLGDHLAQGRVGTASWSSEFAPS
Sequence of human adenosine receptor A1 (human) (P30542 whole entry): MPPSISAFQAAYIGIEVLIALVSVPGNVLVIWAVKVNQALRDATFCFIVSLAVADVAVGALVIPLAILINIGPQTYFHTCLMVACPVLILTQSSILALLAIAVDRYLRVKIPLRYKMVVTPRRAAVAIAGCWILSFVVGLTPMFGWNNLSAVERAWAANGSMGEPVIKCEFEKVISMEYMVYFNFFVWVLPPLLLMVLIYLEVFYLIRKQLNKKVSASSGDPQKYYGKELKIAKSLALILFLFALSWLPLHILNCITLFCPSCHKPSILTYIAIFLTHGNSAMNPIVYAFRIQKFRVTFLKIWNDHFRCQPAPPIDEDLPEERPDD
T5 sequence (P29274 whole entry): as the sequence (P29274 whole entry) above

Geo Mean [11]: 2.42 | Geo Mean [12]: 1.87 | Geo Mean [13]: 1.84 | Geo Mean [14]: 2.48 | Geo Mean [15]: 2.7 | Geo Mean [16]: 1.81 | Geo Mean [17]: 2.69 | Geo Mean [18]: 2.06 | Geo Mean [19]: 2.39 | Geo Mean [20]: 1.9 | Geo Mean [21]: 2.33 | Geo Mean [22]: 2.97 | Geo Mean [23]: 2.83 | Geo Mean [24]: 2.92 | Geo Mean [25]: 2.05 | Geo Mean [26]: 2.24 | Geo Mean [27]: 2.82 | Geo Mean [28]: 2.5 | Geo Mean [29]: 2.41 | Geo Mean [30]: 2
Molecule: mouse IgG2a isotype control (antibody)

binding to human A2aR-expressing cells (FIG. 2) (human A2aR): specific binding | IC50 (M), cAMP-Glo assay of NECA-induced cAMP in HEK293 cells stably expressing human A2aR [33]: 4.35e-09 M
B2: anti-human A2aR monoclonal antibody 3F8-12E9 (antibody, mouse IgG2a, V domains shown)
VH: QVQLQQPGTELVKPGAPVKLSCKASGFTFTRYWMNWVKQRPGRGLEWIGRIDPSDSETHYNHKFWGKATLTVDKSSSTAYIQLNSLTSEDSAVYYCLRSLYGKGDYWGQGTTLTVSS
VL: DVLMTQTPLSLSVGLGDQASISCRSSQSIVHSNGNTYLEWYLQRPGQSPKLLIYKVSNRFSGVPDRFSGSGSGTDFTLKISRVEAEDLGVYYCYQGSHVPLTFGSGTKLEIK
binding to parental Expi293 cells (FIG. 2) (parental Expi293 cells): not to parental Expi293 cells

Further lines, the molecule ahead of its results:

Molecule: Nc1nc(NCCc2ccc(O)cc2)nc2nc(-c3ccco3)nn12 [ZM241385]
tumor growth (tumor): significant delay in tumor growth

Molecule: Anti-FLAG antibody (Abcam, ab72469)
Geo Mean [1]: 47.4 | Geo Mean [2]: 70.4 | Geo Mean [3]: 183 | Geo Mean [4]: 53.3 | Geo Mean [5]: 48.2 | Geo Mean [6]: 50.1 | Geo Mean [7]: 105 | Geo Mean [8]: 223 | Geo Mean [9]: 121 | Geo Mean [10]: 78.6

B1: anti-human A2aR monoclonal antibody 3F6-9G5 (mouse IgG2a format) (antibody, V domains shown)
VH: QVQLQQPGTELVKPGAPVRLSCKASGFAFTSYWMNWVRQRPGRGLEWIGRIDPSDSEAHYHHKFWGKATLTVDKSSSTVYIQLNGLTSEDSAVYYCLRSLYGKGDYWGHGTTLTVSS
VL: DVLMTQTPLSLSVRLGDQASISCRSSQSLVHRNGNTYLEWYLQRPGQSPKLLIYKVSNRFSGVPDRFSGSGSGTDFTLKISRVEAEDLGVYYCYQGSHVPLTFGSGTKLEIK
notes: Tested as whole mouse IgG2a / kappa, purified from hybridoma supernatant or made recombinantly in Expi293 cells
binding result [31]: no binding (tested: 2, 10 and 50 nM tested) | binding result [32]: no binding (tested: 2, 10 and 50 nM tested) | IC50 (M), cAMP-Glo assay of NECA-induced cAMP in HEK293 cells stably expressing human A2aR [33]: 1.57e-09 M | binding result [34]: no binding (tested: 2, 10 and 50 nM tested)
